Experimental data from PMC11417369, “DNA sequence and chromatin differentiate sequence-specific transcription factor binding in the human malaria parasite Plasmodium falciparum”.
Changes are numbered by the printed parent chain.

Target: T1, PF3D7_0420300 D1 (Plasmodium falciparum, UniProt Q8I1N6 1956-2015)
T1 sequence: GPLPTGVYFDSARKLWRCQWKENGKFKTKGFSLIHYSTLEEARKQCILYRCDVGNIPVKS
Assay: gcPBM; about 25 ug protein; PBS, 1% milk, 0.2 mg/ml BSA, salmon testes DNA, 0.03% Triton X-100
Conditions: tags: N-terminal GST (pGEX-4T-1), kept; label: surface-attached array probe

B1: CACACA_site240 (dsDNA)
DNA 1: TTTATTTATTAATACACACACACACCCCCACAAAAT
DNA 2: ATTTTGTGGGGGTGTGTGTGTGTATTAATAAATAAA
binding signal: 10.5 ln median PBM intensity, better of two orientations

B2: CACACA_negctrl_site1632 (dsDNA)
DNA 1: AATTCACATGTGAACTAAAAGAATATTATATATATA
DNA 2: TATATATATAATATTCTTTTAGTTCACATGTGAATT
binding signal: 9.11 ln median PBM intensity, better of two orientations

B3: CACACA_negctrl_site899 (dsDNA)
DNA 1: AATAAATAAATAAATATATATATATATATATATATG
DNA 2: CATATATATATATATATATATATTTATTTATTTATT
binding signal: 9.11 ln median PBM intensity, better of two orientations

B4: CACACA_negctrl_site1642 (dsDNA)
DNA 1: TGTTGCAAAACAAAAAAAAAAAAAAAAAATAATAAT
DNA 2: ATTATTATTTTTTTTTTTTTTTTTTGTTTTGCAACA
binding signal: 9.09 ln median PBM intensity, better of two orientations

B5: CACACA_negctrl_site942 (dsDNA)
DNA 1: ATATTATGAAGGGATATTTTCAAAAATATTAGGAGA
DNA 2: TCTCCTAATATTTTTGAAAATATCCCTTCATAATAT
binding signal: 9.11 ln median PBM intensity, better of two orientations

B6: CACACA_site8069 (dsDNA)
DNA 1: ACATAATTAACAAATACACACACACCCACCCACAAA
DNA 2: TTTGTGGGTGGGTGTGTGTGTATTTGTTAATTATGT
binding signal: 10.5 ln median PBM intensity, better of two orientations

B7: CACACA_negctrl_site1462 (dsDNA)
DNA 1: ATTTCTTTTTTTTTTTTTTTTAATGTAAAACATTTT
DNA 2: AAAATGTTTTACATTAAAAAAAAAAAAAAAAGAAAT
binding signal: 9.11 ln median PBM intensity, better of two orientations

B8: CACACA_negctrl_site706 (dsDNA)
DNA 1: TTTCTTATATTATATAAATATATAGATGTTAATGGT
DNA 2: ACCATTAACATCTATATATTTATATAATATAAGAAA
binding signal: 9.08 ln median PBM intensity, better of two orientations

B9: CACACA_negctrl_site1016 (dsDNA)
DNA 1: TATATTCCACTCATTGATTTTCTCTTCTCACAAAAA
DNA 2: TTTTTGTGAGAAGAGAAAATCAATGAGTGGAATATA
binding signal: 9.1 ln median PBM intensity, better of two orientations

B10: CACACA_negctrl_site1797 (dsDNA)
DNA 1: AGATTATATATATGTATATATGTATATATTTATATA
DNA 2: TATATAAATATATACATATATACATATATATAATCT
binding signal: 9.11 ln median PBM intensity, better of two orientations

B11: CACACA_negctrl_site610 (dsDNA)
DNA 1: ATTATAAGAATTAAAAGAAACAAAATTTTAATTATA
DNA 2: TATAATTAAAATTTTGTTTCTTTTAATTCTTATAAT
binding signal: 9.07 ln median PBM intensity, better of two orientations

B12: CACACA_site492 (dsDNA)
DNA 1: TAAACATACATATACACACACACACCCACACCCACA
DNA 2: TGTGGGTGTGGGTGTGTGTGTGTATATGTATGTTTA
binding signal: 10.4 ln median PBM intensity, better of two orientations

B13: CACACA_negctrl_site251 (dsDNA)
DNA 1: AAGAATGTTATATTATGATGCTGTCTTTTTTTAAGA
DNA 2: TCTTAAAAAAAGACAGCATCATAATATAACATTCTT
binding signal: 9.08 ln median PBM intensity, better of two orientations

B14: CACACA_negctrl_site461 (dsDNA)
DNA 1: AGATATAGGAAAATAATATATATATATTTTTTTTTT
DNA 2: AAAAAAAAAATATATATATATTATTTTCCTATATCT
binding signal: 9.11 ln median PBM intensity, better of two orientations

B15: CACACA_site8059 (dsDNA)
DNA 1: CATACATATAAACACACACACACACCCACCCACAAA
DNA 2: TTTGTGGGTGGGTGTGTGTGTGTGTTTATATGTATG
binding signal: 10.5 ln median PBM intensity, better of two orientations

B16: CACACA_negctrl_site83 (dsDNA)
DNA 1: GTGTGGTTACAGACACGAACACATTTTTTAAATATT
DNA 2: AATATTTAAAAAATGTGTTCGTGTCTGTAACCACAC
binding signal: 9.09 ln median PBM intensity, better of two orientations

B17: CACACA_negctrl_site54 (dsDNA)
DNA 1: AATAAAAAAAAAATATATATTTTTTTTTTTTTTTTT
DNA 2: AAAAAAAAAAAAAAAAATATATATTTTTTTTTTATT
binding signal: 9.09 ln median PBM intensity, better of two orientations

B18: CACACA_site638 (dsDNA)
DNA 1: AATACACGCAAACACACACACACACCCACATATATA
DNA 2: TATATATGTGGGTGTGTGTGTGTGTTTGCGTGTATT
binding signal: 10.5 ln median PBM intensity, better of two orientations

B19: CACACA_site7104 (dsDNA)
DNA 1: B18 DNA 1 with T3C, A6G, A11G, C26G
DNA 2: B18 DNA 2 with G11C, T26C, T31C, A34G
binding signal: 10.5 ln median PBM intensity, better of two orientations

B20: CACACA_negctrl_site73 (dsDNA)
DNA 1: TTGATGTATACAATGTAGATTATTTAATATTTCAAC
DNA 2: GTTGAAATATTAAATAATCTACATTGTATACATCAA
binding signal: 9.09 ln median PBM intensity, better of two orientations

B21: CACACA_site2917 (dsDNA)
DNA 1: ACCATACATACATACACACACACACCCATATATATA
DNA 2: TATATATATGGGTGTGTGTGTGTATGTATGTATGGT
binding signal: 10.4 ln median PBM intensity, better of two orientations

B22: CACACA_site6306 (dsDNA)
DNA 1: AGCACACGCAGACACACACACACACGCACACGCACA
DNA 2: TGTGCGTGTGCGTGTGTGTGTGTGTCTGCGTGTGCT
binding signal: 10.5 ln median PBM intensity, better of two orientations

B23: CACACA_negctrl_site1134 (dsDNA)
DNA 1: GTTTGATAACACCTACAAACTCTTTTTTTTTTTTTT
DNA 2: AAAAAAAAAAAAAAGAGTTTGTAGGTGTTATCAAAC
binding signal: 9.08 ln median PBM intensity, better of two orientations

B24: CACACA_negctrl_site608 (dsDNA)
DNA 1: GTATATATATATATATATATAATAGTAACTTTTACT
DNA 2: AGTAAAAGTTACTATTATATATATATATATATATAC
binding signal: 9.1 ln median PBM intensity, better of two orientations

B25: CACACA_site518 (dsDNA)
DNA 1: ATAATTAACAAATACACACACACACCCCCACAAAAA
DNA 2: TTTTTGTGGGGGTGTGTGTGTGTATTTGTTAATTAT
binding signal: 10.6 ln median PBM intensity, better of two orientations

B26: CACACA_site366 (dsDNA)
DNA 1: CACACCCACCAACACACACACACACCCACCCATATA
DNA 2: TATATGGGTGGGTGTGTGTGTGTGTTGGTGGGTGTG
binding signal: 10.4 ln median PBM intensity, better of two orientations

B27: CACACA_negctrl_site1686 (dsDNA)
DNA 1: ACAAGTGTATATGTTATATATATATATATATATATA
DNA 2: TATATATATATATATATATATAACATATACACTTGT
binding signal: 9.1 ln median PBM intensity, better of two orientations

B28: CACACA_site639 (dsDNA)
DNA 1: AAAATACACGCATACACACACACACCCACCCATATA
DNA 2: TATATGGGTGGGTGTGTGTGTGTATGCGTGTATTTT
binding signal: 10.5 ln median PBM intensity, better of two orientations

B29: CACACA_site2625 (dsDNA)
DNA 1: AAATAAATGAAACACACACACACAAAAAAAAAAAAC
DNA 2: GTTTTTTTTTTTTGTGTGTGTGTGTTTCATTTATTT
binding signal: 10.5 ln median PBM intensity, better of two orientations

B30: CACACA_site6305 (dsDNA)
DNA 1: CACACGCACGAACACACACACACACGCACGCACATA
DNA 2: TATGTGCGTGCGTGTGTGTGTGTGTTCGTGCGTGTG
binding signal: 10.4 ln median PBM intensity, better of two orientations

B31: CACACA_negctrl_site754 (dsDNA)
DNA 1: TATATTTGTACATGATATTTTTTTTTTCTTTTAAAA
DNA 2: TTTTAAAAGAAAAAAAAAATATCATGTACAAATATA
binding signal: 9.1 ln median PBM intensity, better of two orientations

B32: CACACA_site8011 (dsDNA)
DNA 1: AGCACCCACCAACACACACACACACCCACCCACCCA
DNA 2: TGGGTGGGTGGGTGTGTGTGTGTGTTGGTGGGTGCT
binding signal: 10.6 ln median PBM intensity, better of two orientations
